Test results as given in article PMC12487888 (2025).

Target: EutQ (residues 1 to 229) (S. Typhimurium LT2, UniProt Q9ZFV5 1-229)
Test: ITC

Chain of EutQ (residues 1 to 229) (Q9ZFV5 whole entry, the tested form may be a part): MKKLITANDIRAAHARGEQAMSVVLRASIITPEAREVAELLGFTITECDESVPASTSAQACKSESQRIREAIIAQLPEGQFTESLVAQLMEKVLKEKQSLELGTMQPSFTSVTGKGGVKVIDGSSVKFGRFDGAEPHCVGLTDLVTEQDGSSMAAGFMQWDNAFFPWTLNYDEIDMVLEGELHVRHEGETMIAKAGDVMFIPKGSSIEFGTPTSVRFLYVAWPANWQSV

Binder: MNQQDIEQVVKAVLLKMKDS [EutE^1–20 encapsulation peptide]
- Kd: 14.1 µM
